Results: patent US20260167699A1 (Chugai, published 2026)

Target: T1, FcγRIIIa (human, UniProt P08637 17-208)
T1 construct: extracellular domain; also called 3a; FcγRIIIa extracellular domain
Experiment: SPR (Biacore);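 note: antibody variants captured on an SPR sensor chip, with FcγRIIIa passed over as analyte in HBS-EP+ buffer at 25 °C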

T1 sequence (P08637 other isoform, or with tags, fused parts or gaps): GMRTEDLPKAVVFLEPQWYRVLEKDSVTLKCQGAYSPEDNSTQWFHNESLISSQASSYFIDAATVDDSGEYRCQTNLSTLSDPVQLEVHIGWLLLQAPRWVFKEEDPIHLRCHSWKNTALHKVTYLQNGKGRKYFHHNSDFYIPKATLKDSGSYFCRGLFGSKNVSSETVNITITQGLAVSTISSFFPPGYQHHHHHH

He/Con 3a	Binder
96.2 % of GpH7-A5/GpH7-B3/GpL16-k0	GpH7-A5/GpH7-B3 variant S324_19Q/GpL16-k0 (antibody, human IgG1, kappa, copies: 1 + 1 + 2) heavy 1: not shown heavy 2: not shown light: DIVMTQSPLSLPVTPGEPASISCQASESLVHSNRNTYLHWYLQKPGQSPQLLIYKVSNRFSGVPDRFSGSGSGTDFTLKISRVEAEDVGVYYCSQNTHVPPTFGQGTKVEIERTVAAPSVFIFPPSDEQLKSGTASVVCLLNNFYPREAKVQWKVDNALQSGNSQESVTEQDSKDSTYSLSSTLTLSKADYEKHKVYACEVTHQGLSSPVTKSFNRGEC
95.2 % of GpH7-A5/GpH7-B3/GpL16-k0	GpH7-A5/GpH7-B3 variant S337_01G/GpL16-k0 (antibody, human IgG1, kappa, copies: 1 + 1 + 2) heavy 1: not shown heavy 2: not shown light: DIVMTQSPLSLPVTPGEPASISCQASESLVHSNRNTYLHWYLQKPGQSPQLLIYKVSNRFSGVPDRFSGSGSGTDFTLKISRVEAEDVGVYYCSQNTHVPPTFGQGTKVEIERTVAAPSVFIFPPSDEQLKSGTASVVCLLNNFYPREAKVQWKVDNALQSGNSQESVTEQDSKDSTYSLSSTLTLSKADYEKHKVYACEVTHQGLSSPVTKSFNRGEC
92.4 % of GpH7-A5/GpH7-B3/GpL16-k0	GpH7-A5/GpH7-B3 variant S337_02A/GpL16-k0 (antibody, human IgG1, kappa, copies: 1 + 1 + 2) heavy 1: not shown heavy 2: not shown light: DIVMTQSPLSLPVTPGEPASISCQASESLVHSNRNTYLHWYLQKPGQSPQLLIYKVSNRFSGVPDRFSGSGSGTDFTLKISRVEAEDVGVYYCSQNTHVPPTFGQGTKVEIERTVAAPSVFIFPPSDEQLKSGTASVVCLLNNFYPREAKVQWKVDNALQSGNSQESVTEQDSKDSTYSLSSTLTLSKADYEKHKVYACEVTHQGLSSPVTKSFNRGEC
111 % of GpH7-A5/GpH7-B3/GpL16-k0	GpH7-A5/GpH7-B3 variant S324_20W/GpL16-k0 (antibody, human IgG1, kappa, copies: 1 + 1 + 2) heavy 1: not shown heavy 2: not shown light: DIVMTQSPLSLPVTPGEPASISCQASESLVHSNRNTYLHWYLQKPGQSPQLLIYKVSNRFSGVPDRFSGSGSGTDFTLKISRVEAEDVGVYYCSQNTHVPPTFGQGTKVEIERTVAAPSVFIFPPSDEQLKSGTASVVCLLNNFYPREAKVQWKVDNALQSGNSQESVTEQDSKDSTYSLSSTLTLSKADYEKHKVYACEVTHQGLSSPVTKSFNRGEC
103 % of GpH7-A5/GpH7-B3/GpL16-k0	GpH7-A5/GpH7-B3 variant S324_18N/GpL16-k0 (antibody, human IgG1, kappa, copies: 1 + 1 + 2) heavy 1: not shown heavy 2: not shown light: DIVMTQSPLSLPVTPGEPASISCQASESLVHSNRNTYLHWYLQKPGQSPQLLIYKVSNRFSGVPDRFSGSGSGTDFTLKISRVEAEDVGVYYCSQNTHVPPTFGQGTKVEIERTVAAPSVFIFPPSDEQLKSGTASVVCLLNNFYPREAKVQWKVDNALQSGNSQESVTEQDSKDSTYSLSSTLTLSKADYEKHKVYACEVTHQGLSSPVTKSFNRGEC
113 % of GpH7-A5/GpH7-B3/GpL16-k0	GpH7-A5/GpH7-B3 variant S324_16H/GpL16-k0 (antibody, human IgG1, kappa, copies: 1 + 1 + 2) heavy 1: not shown heavy 2: not shown light: DIVMTQSPLSLPVTPGEPASISCQASESLVHSNRNTYLHWYLQKPGQSPQLLIYKVSNRFSGVPDRFSGSGSGTDFTLKISRVEAEDVGVYYCSQNTHVPPTFGQGTKVEIERTVAAPSVFIFPPSDEQLKSGTASVVCLLNNFYPREAKVQWKVDNALQSGNSQESVTEQDSKDSTYSLSSTLTLSKADYEKHKVYACEVTHQGLSSPVTKSFNRGEC
87.1 % of GpH7-A5/GpH7-B3/GpL16-k0	GpH7-A5/GpH7-B3 variant S337_03V/GpL16-k0 (antibody, human IgG1, kappa, copies: 1 + 1 + 2) heavy 1: not shown heavy 2: not shown light: DIVMTQSPLSLPVTPGEPASISCQASESLVHSNRNTYLHWYLQKPGQSPQLLIYKVSNRFSGVPDRFSGSGSGTDFTLKISRVEAEDVGVYYCSQNTHVPPTFGQGTKVEIERTVAAPSVFIFPPSDEQLKSGTASVVCLLNNFYPREAKVQWKVDNALQSGNSQESVTEQDSKDSTYSLSSTLTLSKADYEKHKVYACEVTHQGLSSPVTKSFNRGEC

Second part, the binder before the results:

Binder	He/Con 3a
GpH7-A5/GpH7-B3 variant S324_06M/GpL16-k0 (antibody, human IgG1, kappa, copies: 1 + 1 + 2) heavy 1: not shown heavy 2: not shown light: DIVMTQSPLSLPVTPGEPASISCQASESLVHSNRNTYLHWYLQKPGQSPQLLIYKVSNRFSGVPDRFSGSGSGTDFTLKISRVEAEDVGVYYCSQNTHVPPTFGQGTKVEIERTVAAPSVFIFPPSDEQLKSGTASVVCLLNNFYPREAKVQWKVDNALQSGNSQESVTEQDSKDSTYSLSSTLTLSKADYEKHKVYACEVTHQGLSSPVTKSFNRGEC	124 % of GpH7-A5/GpH7-B3/GpL16-k0
GpH7-A5/GpH7-B3 variant S324_07I/GpL16-k0 (antibody, human IgG1, kappa, copies: 1 + 1 + 2) heavy 1: not shown heavy 2: not shown light: DIVMTQSPLSLPVTPGEPASISCQASESLVHSNRNTYLHWYLQKPGQSPQLLIYKVSNRFSGVPDRFSGSGSGTDFTLKISRVEAEDVGVYYCSQNTHVPPTFGQGTKVEIERTVAAPSVFIFPPSDEQLKSGTASVVCLLNNFYPREAKVQWKVDNALQSGNSQESVTEQDSKDSTYSLSSTLTLSKADYEKHKVYACEVTHQGLSSPVTKSFNRGEC	101 % of GpH7-A5/GpH7-B3/GpL16-k0
GpH7-A5/GpH7-B3 variant S324_08L/GpL16-k0 (antibody, human IgG1, kappa, copies: 1 + 1 + 2) heavy 1: not shown heavy 2: not shown light: DIVMTQSPLSLPVTPGEPASISCQASESLVHSNRNTYLHWYLQKPGQSPQLLIYKVSNRFSGVPDRFSGSGSGTDFTLKISRVEAEDVGVYYCSQNTHVPPTFGQGTKVEIERTVAAPSVFIFPPSDEQLKSGTASVVCLLNNFYPREAKVQWKVDNALQSGNSQESVTEQDSKDSTYSLSSTLTLSKADYEKHKVYACEVTHQGLSSPVTKSFNRGEC	95.5 % of GpH7-A5/GpH7-B3/GpL16-k0
GpH7-A5/GpH7-B3 variant S324_11K/GpL16-k0 (antibody, human IgG1, kappa, copies: 1 + 1 + 2) heavy 1: not shown heavy 2: not shown light: DIVMTQSPLSLPVTPGEPASISCQASESLVHSNRNTYLHWYLQKPGQSPQLLIYKVSNRFSGVPDRFSGSGSGTDFTLKISRVEAEDVGVYYCSQNTHVPPTFGQGTKVEIERTVAAPSVFIFPPSDEQLKSGTASVVCLLNNFYPREAKVQWKVDNALQSGNSQESVTEQDSKDSTYSLSSTLTLSKADYEKHKVYACEVTHQGLSSPVTKSFNRGEC	90.2 % of GpH7-A5/GpH7-B3/GpL16-k0
GpH7-A5/GpH7-B3 variant S324_15Y/GpL16-k0 (antibody, human IgG1, kappa, copies: 1 + 1 + 2) heavy 1: not shown heavy 2: not shown light: DIVMTQSPLSLPVTPGEPASISCQASESLVHSNRNTYLHWYLQKPGQSPQLLIYKVSNRFSGVPDRFSGSGSGTDFTLKISRVEAEDVGVYYCSQNTHVPPTFGQGTKVEIERTVAAPSVFIFPPSDEQLKSGTASVVCLLNNFYPREAKVQWKVDNALQSGNSQESVTEQDSKDSTYSLSSTLTLSKADYEKHKVYACEVTHQGLSSPVTKSFNRGEC	110 % of GpH7-A5/GpH7-B3/GpL16-k0
GpH7-A5/GpH7-B3 variant S324_12R/GpL16-k0 (antibody, human IgG1, kappa, copies: 1 + 1 + 2) heavy 1: not shown heavy 2: not shown light: DIVMTQSPLSLPVTPGEPASISCQASESLVHSNRNTYLHWYLQKPGQSPQLLIYKVSNRFSGVPDRFSGSGSGTDFTLKISRVEAEDVGVYYCSQNTHVPPTFGQGTKVEIERTVAAPSVFIFPPSDEQLKSGTASVVCLLNNFYPREAKVQWKVDNALQSGNSQESVTEQDSKDSTYSLSSTLTLSKADYEKHKVYACEVTHQGLSSPVTKSFNRGEC	98.1 % of GpH7-A5/GpH7-B3/GpL16-k0
GpH7-A5/GpH7-B3 variant S324_14T/GpL16-k0 (antibody, human IgG1, kappa, copies: 1 + 1 + 2) heavy 1: not shown heavy 2: not shown light: DIVMTQSPLSLPVTPGEPASISCQASESLVHSNRNTYLHWYLQKPGQSPQLLIYKVSNRFSGVPDRFSGSGSGTDFTLKISRVEAEDVGVYYCSQNTHVPPTFGQGTKVEIERTVAAPSVFIFPPSDEQLKSGTASVVCLLNNFYPREAKVQWKVDNALQSGNSQESVTEQDSKDSTYSLSSTLTLSKADYEKHKVYACEVTHQGLSSPVTKSFNRGEC	112 % of GpH7-A5/GpH7-B3/GpL16-k0
GpH7-A5/GpH7-B3 variant S324_10E/GpL16-k0 (antibody, human IgG1, kappa, copies: 1 + 1 + 2) heavy 1: not shown heavy 2: not shown light: DIVMTQSPLSLPVTPGEPASISCQASESLVHSNRNTYLHWYLQKPGQSPQLLIYKVSNRFSGVPDRFSGSGSGTDFTLKISRVEAEDVGVYYCSQNTHVPPTFGQGTKVEIERTVAAPSVFIFPPSDEQLKSGTASVVCLLNNFYPREAKVQWKVDNALQSGNSQESVTEQDSKDSTYSLSSTLTLSKADYEKHKVYACEVTHQGLSSPVTKSFNRGEC	108 % of GpH7-A5/GpH7-B3/GpL16-k0
GpH7-A5/GpH7-B3 variant S324_09D/GpL16-k0 (antibody, human IgG1, kappa, copies: 1 + 1 + 2) heavy 1: not shown heavy 2: not shown light: DIVMTQSPLSLPVTPGEPASISCQASESLVHSNRNTYLHWYLQKPGQSPQLLIYKVSNRFSGVPDRFSGSGSGTDFTLKISRVEAEDVGVYYCSQNTHVPPTFGQGTKVEIERTVAAPSVFIFPPSDEQLKSGTASVVCLLNNFYPREAKVQWKVDNALQSGNSQESVTEQDSKDSTYSLSSTLTLSKADYEKHKVYACEVTHQGLSSPVTKSFNRGEC	110 % of GpH7-A5/GpH7-B3/GpL16-k0
